This assay addresses T1, Recombinant human EGFR-Fc Chimera (R&D Systems, catalog no. 344-ER-050) (human, UniProt P00533 25-645).
T1 construct: range 1-645; Bought reagent; Immobilised on the CM5 chip for SPR; also called hEGFR-Fc; not shown: Fc region of human IgG1, fused at the C-terminus
Briefly: SPR (Biacore) on immobilised hEGFR-Fc.

B1: Affilin 138838 (designed binder)
chain: MQIFVYTNTGKTITLEVEPSDTIENVKAKIQDKEGIPPDQQRLIWAGKQLEDGRTLSDYNIRNPDILHLVLRLRAAGIGMQIFVHTITGKTITLEVEPSDTIENVKAKIQDKEGIPPDQQRLIWAGKQLEDGRTLSDYNIEGERDLHLVLRLRAA
notes: Affilin of two ubiquitin moieties with PDI motif
As for B1, the Kd stood at 615 nM.

Values taken from patent US20180030098A1 (NAVIGO PROTEINS, published 2018).
